Measured values published in patent publication US20020192214A1 (published 2002).

B1: RANTES (ligand, UniProt P13501 24-91, looked up)
chain: SPYSSDTTPCCFAYIARPLPRAHIKEYFYTSGKCSNPAVVFVTRKNRQVCANPEKKWVREYINSLEMS
B2: murine eotaxin (ligand, UniProt P48298 24-97, looked up)
chain: HPGSIPTSCCFIMTSKKIPNTLLKSYKRITNNRCTLKAIVFKTRLGKEICADPKKKWVQDATKHLDQKLQTPKP
B3: MCP-3 (ligand)
chain: not shown
B4: human eotaxin (ligand)
chain: not shown
B5: MIP-1β (ligand, UniProt P13236 24-92, looked up)
chain: APMGSDPPTACCFSYTARKLPRNFVVDYYETSSLCSQPAVVFQTKRSKQVCADPSESWVQEYVYDLELN
notes: also called macrophage inflammatory protein 1β
B6: MIP-1α (ligand, UniProt P10147 24-92, looked up)
chain: SLAADTPTACCFSYTSRQIPQNFIADYFETSSQCSKPGVIFLTKRSRQVCADPSEEWVQKYVSDLELSA
notes: also called macrophage inflammatory protein 1α

Molecular target: T1, human eosinophil eotaxin receptor CC CKR3, stably expressed in AML14.3D10 cells (human, UniProt P51677 1-355)
T1 construct: Full-length cDNA in pBJ/NEO transfected into the AML14.3D10 eosinophilic line; also called AML14/CCCKR3.16
T1 sequence: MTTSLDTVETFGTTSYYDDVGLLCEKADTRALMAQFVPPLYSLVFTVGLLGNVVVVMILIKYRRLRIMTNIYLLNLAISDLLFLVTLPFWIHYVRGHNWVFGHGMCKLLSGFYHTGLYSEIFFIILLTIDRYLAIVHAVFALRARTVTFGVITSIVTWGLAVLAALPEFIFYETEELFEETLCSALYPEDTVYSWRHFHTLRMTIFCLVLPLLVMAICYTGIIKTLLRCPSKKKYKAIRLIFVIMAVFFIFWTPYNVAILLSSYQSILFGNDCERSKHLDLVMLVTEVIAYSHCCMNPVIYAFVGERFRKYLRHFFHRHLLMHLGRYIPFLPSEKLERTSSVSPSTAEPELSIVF
Assay: competition against 125I-human eotaxin, intact AML14.3D10 cells expressing CC CKR3
Protocol: (§1) Results with murine eotaxin were essentially identical. […] Clearly, CC CKR3 is a high affinity receptor for eotaxin.
(§2) Competition binding experiments were carried out against the indicated iodinated ligand as follows and as described herein. Equilibrium binding of β-chemokines to AML14.3D10 cells expressing CC CKR3 and to primary eosinophils was examined with increasing concentrations of unlabelled human eotaxin, murine eotaxin, RANTES, MCP-3, or MCP-1 to compete against fixed concentrations of either ¹²⁵I-human eotaxin, or ¹²⁵I-MCP-3. Also the competition with 100 nM concentrations of MIP-1α, and MIP-1β was examined. The experiments were carried out either with AML14.3D10 cells expressing CC CKR3, or with eosinophils. All values are the averages of triplicate determinations. Typically, 4000-6000 cpm of iodinated ligand was bound in the absence of compeititor with S/N ratios exceeding 15. Human and murine eotaxin are the human and murine chemokines, respectively. “N.B.” means that no competition was observed. All results are the averages of the number of experiments shown in parenthesis.

Question: B1 was tested. Which Kd did it give?
Answer: The Kd was 3.1 nM.

Question: With B2 as the binder, how does the Kd read?
Answer: The Kd was 0.1 nM.

Question: Which Kd does the source give for B3 here?
Answer: The Kd was 2.7 nM.

Question: Which Kd does the source give for B4 here?
Answer: Its Kd is 0.1 nM.

Molecular target: T1, human eosinophil eotaxin receptor CC …
Assay: competition against 125I-MCP-3, intact AML14.3D10 cells expressing CC CKR3
Protocol: Competition studies were also carried out against ¹²⁵I-MCP-3. […] Thus despite some small quantitative differences the overall ligand selectivity of the receptor is the same whether measured by competition against eotaxin or MCP-3, and the order of potency, eotaxin>MCP-3=RANTES>>MCP-1, is identical.
as §2

Question: How did the Kd turn out when B1 was run?
Answer: Its Kd is 0.5 nM.

Question: For B2, which Kd is on record?
Answer: Its Kd is 0.3 nM.

Question: For B3, which Kd is on record?
Answer: The Kd was 0.7 nM.

Question: Which Kd does the source give for B4 here?
Answer: The Kd was 0.2 nM.

Molecular target: T2, endogenous eosinophil eotaxin receptor (CC CKR3) on primary human eosinophils (human, UniProt P51677 1-355)
T2 construct: The target as printed is 'eosinophils' (primary cells from allergic and asthmatic donors); It also says eosinophils express a much lower level of CC CKR1; also called primary eosinophils
T2 sequence: T1 sequence
Assay: competition against 125I-human eotaxin, primary eosinophils
Protocol: (§3) To provide additional pharmacological evidence, binding studies were conducted on primary eosinophils. […] The number of binding sites varied by less than 2-fold for the 3 donors used in the studies. […] Similarly, the Kd's obtained by competition against ¹²⁵I-MCP-3 on eosinophils are effectively indistinguishable to those measured against cloned CC CKR3 (see Table 1). All of the observations and measurements, taken together with the Western blot showing expression of CC CKR3, verify that CC CKR3 is the eosinophil eotaxin receptor, and appears to be largely responsible for mediating the effects of most β-chemokines on eosinophils.
as §2

Question: How did the Kd turn out when B1 was run?
Answer: The Kd was 2.6 nM.

Question: Which Kd does the source give for B2 here?
Answer: The Kd was 0.1 nM.

Question: For B3, which Kd is on record?
Answer: Its Kd is 3 nM.

Question: With B4 as the binder, how does the Kd read?
Answer: The Kd was 0.1 nM.

Molecular target: T2, endogenous eosinophil eotaxin receptor …
Assay: competition against 125I-human eotaxin on primary eosinophils
Protocol: as §3
Competition binding experiments were carried out against the indicated iodinated ligand as follows and as described herein. Equilibrium binding of β-chemokines to AML14.3D10 cells expressing CC CKR3 and to primary eosinophils was examined with increasing concentrations of unlabelled human eotaxin, murine eotaxin, RANTES, MCP-3, or MCP-1 to compete against fixed concentrations of either ¹²⁵I-human eotaxin, or ¹²⁵I-MCP-3. Also the competition with 100 nM concentrations of MIP-1α, and MIP-1β was examined. The experiments were carried out either with AML14.3D10 cells expressing CC CKR3, or with eosinophils. All values are the averages of triplicate determinations. […]

Question: Does B5 bind?
Answer: Result: no binding (tested: 100 nM)

Question: Does B6 bind?
Answer: Result: no binding (tested: 100 nM)

Molecular target: T1, human eosinophil eotaxin receptor CC …
Assay: cell-based or functional assay

Question: With B5 as the binder, how does the “Ca^2+-flux (intracellular Ca^2+ levels)” value read?
Answer: Its value is greater than 1 µM.

Question: For B6, which “Ca^2+-flux (intracellular Ca^2+ levels)” value is on record?
Answer: The value was greater than 1 µM.

Molecular target: T2, endogenous eosinophil eotaxin receptor …
Assay: competition against 125I-MCP-3, primary eosinophils
Protocol: as §3, §2

Question: With B1 as the binder, how does the Kd read?
Answer: The Kd was 0.9 nM.

Question: B2 was tested. Which Kd did it give?
Answer: The Kd was 0.2 nM.

Question: With B3 as the binder, how does the Kd read?
Answer: Its Kd is 1.1 nM.

Question: How did the Kd turn out when B4 was run?
Answer: The Kd was 0.2 nM.

Molecular target: T1, human eosinophil eotaxin receptor CC …
Assay: competition against 125I-human eotaxin on AML14.3D10 cells expressing CC CKR3
Protocol: as §1, §2

Question: Does B5 bind?
Answer: Result: no binding (tested: 100 nM)

Question: Does B6 bind?
Answer: Result: no binding (tested: 100 nM)
